Test results published in patent publication US20260274955A1 (JANUX THERAPEUTICS, published 2026).

Experiments:
[1] = biological target: T1, anti-CD28 Fab (SEQ ID NOs: 202, 203); assay: phage binding ELISA on captured biotinylated Fab;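 further: clonal phage supernatants added to wells preincubated with CD28 antigen or blocking buffer only, bound phage detected by ELISA with horseradish-conjugated anti-M13 antibody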
T1 construct: biotinylated and captured on neutravidin coated plates in the phage ELISA
T1 sequence (VH, as listed by the source, chain 1 of 2): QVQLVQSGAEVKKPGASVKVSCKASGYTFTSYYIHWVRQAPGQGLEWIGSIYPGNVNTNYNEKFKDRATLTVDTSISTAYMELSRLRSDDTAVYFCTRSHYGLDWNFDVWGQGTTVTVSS
T1 sequence (VL, as listed by the source, chain 2 of 2): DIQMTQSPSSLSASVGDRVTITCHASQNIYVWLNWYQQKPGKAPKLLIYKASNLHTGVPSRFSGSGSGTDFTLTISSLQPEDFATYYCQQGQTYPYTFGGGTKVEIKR
Description: After panning, phage infected bacteria were plated out and colonies picked into 96 well blocks. Clonal phage was then amplified and separated from bacterial cells via centrifugation.
Clonal phage were harvested as crude supernatants and screened via standard ELISAs. […] Prior to the addition of clonal phage, wells were incubated with blocking buffer and CD28 antigen or blocking buffer alone. Without washing or aspirating, clonal phage supernatants were then added to the wells and incubated for a short time. Wells were then washed followed by detection of bound phage using a horse radish conjugated anti-M13 antibody. Clonal phage of interest were then sent for sequence analysis.

[2] = biological target: T2, Anti-CD28 Fab (SEQ ID NOs: 202, 203); assay: phage ELISA on captured biotinylated Fab;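 further: wells preblocked with or without CD28 antigen, then clonal phage supernatant added briefly, washed, and bound phage read out by ELISA using HRP-linked anti-M13 antibody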
T2 construct: biotinylated and captured on neutravidin coated plates in the phage ELISA
T2 sequence (VH, as listed by the source, chain 1 of 2): as the sequence (VH, as listed by the source, chain 1 of 2) above
T2 sequence (VL, as listed by the source, chain 2 of 2): as the sequence (VL, as listed by the source, chain 2 of 2) above
Description: (§1) Clonal phage were harvested as crude supernatants and screened via standard ELISAs. […] Prior to the addition of clonal phage, wells were incubated with blocking buffer and CD28 antigen or blocking buffer alone. Without washing or aspirating, clonal phage supernatants were then added to the wells and incubated for a short time. Wells were then washed followed by detection of bound phage using a horse radish conjugated anti-M13 antibody.

[3] = biological target: T2, Anti-CD28 Fab (SEQ ID NOs: 202, 203); assay: phage ELISA on captured Fab, wells pre-incubated with CD28 antigen (competitor: CD28);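 further: bound clonal phage detected with an HRP-linked anti-M13 antibody, compared against wells that received blocking buffer alone without CD28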
Description: as §1

Row | Binder | Anti-CD28 Fab (SEQ ID NOs: 202, 203) signal [1] | Anti-CD28 Fab signal [2] | Anti-CD28 Fab signal in the presence of CD28 [3]
1 | TCSAGASWAWPWCF [Phage-961] | 2.03 |  | 
2 | QCAAGASYPWPMCL [Phage-951] | 2.08 |  | 
3 | YCMGHLPQYMEKCL [Phage-212] |  | 2.08 | 0.08
4 | YCMGHLPQYMQKCL [Phage-166] |  | 2.18 | 0.11
5 | MCSAGANYPWPWCL [Phage-979] | 1.97 |  | 
6 | YCDGHSPLYIWKCL [Phage-157] |  | 2.19 | 0.09
7 | YCDGHSPDYIWKCL [Phage-289] |  | 1.93 | 0.1
8 | YCDGHLPEYIEKCL [Phage-159] |  | 2.19 | 0.07
9 | LCEEFADYPWPMCL [Phage-965] | 2.01 |  | 
10 | SCAAGAMWPWPVCV [Phage-915] | 2.29 |  | 
11 | YCDGHAPEYMLKCL [Phage-151] |  | 2.2 | 0.07
12 | YCDGHAPDYMLKCL [Phage-152] |  | 2.2 | 0.09
13 | YCDGHMPEYMLKCL [Phage-199] |  | 2.11 | 0.09
14 | YCDGHMPEYMEKCL [Phage-292] |  | 1.93 | 0.09
15 | YCDGHAPQYMLKCL [Phage-194] |  | 2.12 | 0.09
16 | YCDGHAPQYMGKCL [Phage-227] |  | 2.06 | 0.08
17 | YCMGHAPEYMEKCL [Phage-290] |  | 1.93 | 0.07
18 | TCAAGATYEWPACL [Phage-947] | 2.09 |  | 
19 | TCAAGATYKWPACL [Phage-958] | 2.05 |  | 
20 | MCAAGANYPWPQCL [Phage-920] | 2.28 |  | 

Row | Binder | Anti-CD28 Fab (SEQ ID NOs: 202, 203) signal [1] | Anti-CD28 Fab signal [2] | Anti-CD28 Fab signal in the presence of CD28 [3]
21 | QCSAGAAWPWPFCL [Phage-976] | 1.97 |  | 
22 | SCAAVFSYSWPMCF [Phage-973] | 1.99 |  | 
23 | WCKPGAPYKWPPCF [Phage-942] | 2.14 |  | 
24 | TCSAGATYVWPQCF [Phage-956] | 2.05 |  | 
25 | TCSAGATWSWPMCL [Phage-921] | 2.26 |  | 
26 | SCSAGAMYTWPTCL [Phage-950] | 2.09 |  | 
27 | TCSAGATYEWPWCM [Phage-978] | 1.97 |  | 
28 | TCAAGAHYSWPACF [Phage-923] | 2.25 |  | 
29 | TCAAVFSYGWPECF [Phage-949] | 2.09 |  | 
30 | SCKPGVANYWPWCL [Phage-917] | 2.29 |  | 
31 | TCSAGATWTWPQCL [Phage-944] | 2.14 |  | 
32 | SCAAGATYSWPMCL [Phage-974] | 1.99 |  | 
33 | YCEGHAEEYMQKCL [Phage-163] |  | 2.18 | 0.06
34 | YCDGHMPEYIAKCL [Phage-154] |  | 2.19 | 0.08
35 | YCDGHAVEYMAKCL [Phage-161] |  | 2.18 | 0.1
36 | YCDGHKAEYMDKCL [Phage-150] |  | 2.2 | 0.07
37 | TCAAGATYAWPECL [Phage-953] | 2.08 |  | 
38 | TCAAGANYPWPYCL [Phage-969] | 1.99 |  | 
39 | TCAAGAHYLWPWCM [Phage-955] | 2.05 |  | 
40 | TCSAGFHYEWPRCL [Phage-963] | 2.02 |  | 

Row | Binder | Anti-CD28 Fab (SEQ ID NOs: 202, 203) signal [1] | Anti-CD28 Fab signal [2] | Anti-CD28 Fab signal in the presence of CD28 [3]
41 | TCAAGATYSWPMCF [Phage-966] | 2 |  | 
42 | TCAAGATYSWPWCF [Phage-971] | 1.99 |  | 
43 | YCDGHLEEYKQKCL [Phage-165] |  | 2.18 | 0.08
44 | TCKAGATYLWPFCL [Phage-926] | 2.23 |  | 
45 | TCAAGATYPWPSCL [Phage-924] | 2.25 |  | 
46 | GCAAGATYPWPSCL [Phage-957] | 2.05 |  | 
47 | YCAGHLPEYFLKCL [Phage-156] |  | 2.19 | 0.08
48 | TCAAGAMYTWPLCF [Phage-943] | 2.14 |  | 
49 | MCAEFFNYPWPLCL [Phage-946] | 2.11 |  | 
50 | LCAEFFNYPWPLCL [Phage-975] | 1.98 |  | 
51 | YCDGHLPQYKAKCL [Phage-160] |  | 2.19 | 0.09
52 | RCAAGASYPWPPCL [Phage-925] | 2.25 |  | 
53 | TCAAGAHYTWPECF [Phage-972] | 1.99 |  | 
54 | MCAAGAHYTWPTCL [Phage-977] | 1.97 |  | 
55 | TCAAGASYAWPWCL [Phage-960] | 2.03 |  | 
56 | YCDGHSIEYRWKCL [Phage-162] |  | 2.18 | 0.06
57 | YCDGHAPEYIYKCL [Phage-164] |  | 2.18 | 0.06
58 | TCSAGAYYTWPYCF [Phage-948] | 2.09 |  | 
59 | YCDGHLPEYLPKCL [Phage-153] |  | 2.19 | 0.09
60 | YCDGHLPEYLSKCL [Phage-155] |  | 2.19 | 0.07
